Test system: Escherichia coli TOP10
Assay: shrunken log2 fold change of peptide-encoding DNA abundance (4.5 h post-induction vs induction); higher = less antimicrobial activity (less host growth inhibition)
Details: time post-induction: 4.5 h; library: site-saturation at positions 5, 18, 19, 20
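Also: peptides expressed intracellularly from a pBAD plasmid library in pooled LB shake-flask culture, induced with 0.3% L-arabinose, DNA abundance read by NGS, three biological replicates, DESeq2 with apeglm shrinkage.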

Row | Sequence | shrunken log2 fold change
1 | RRIRVRPPRLPRPRPRPYKKPRP | 0.0251
2 | RRIRSRPPRLPRPRPRPFAAPRP | 0.355
3 | RRIRIRPPRLPRPRPRPYACPRP | -0.0484
4 | RRIRMRPPRLPRPRPRPPGWPRP | 1.25
5 | RRIRDRPPRLPRPRPRPRDVPRP | 0.128
6 | RRIRIRPPRLPRPRPRPYCMPRP | -1.34
7 | RRIRPRPPRLPRPRPRPLISPRP | -0.17
8 | RRIRPRPPRLPRPRPRPVKIPRP | 0.154
9 | RRIRMRPPRLPRPRPRPAIHPRP | 0.156
10 | RRIRGRPPRLPRPRPRPFQKPRP | -0.0668
11 | RRIRFRPPRLPRPRPRPAPWPRP | 0.592
12 | RRIRYRPPRLPRPRPRPPVVPRP | 0.00632
13 | RRIRHRPPRLPRPRPRPASCPRP | -0.5
14 | RRIRSRPPRLPRPRPRPFPRPRP | 0.356
15 | RRIRPRPPRLPRPRPRPNMQPRP | -0.313
16 | RRIRDRPPRLPRPRPRPTDMPRP | 0.284
17 | RRIRPRPPRLPRPRPRPSCTPRP | -0.221
18 | RRIRSRPPRLPRPRPRPMLTPRP | -0.0725
19 | RRIRHRPPRLPRPRPRPEKMPRP | -0.0669
20 | RRIRPRPPRLPRPRPRPGRGPRP | 0.611
21 | RRIRMRPPRLPRPRPRPFPCPRP | -0.0872
22 | RRIRARPPRLPRPRPRPSNDPRP | -0.213
23 | RRIRIRPPRLPRPRPRPCYFPRP | -0.906
24 | RRIRNRPPRLPRPRPRPRIMPRP | -0.337
25 | RRIRCRPPRLPRPRPRPWSKPRP | -0.498

Row | Sequence | shrunken log2 fold change
26 | RRIRQRPPRLPRPRPRPEFEPRP | -0.0193
27 | RRIRSRPPRLPRPRPRPEMCPRP | -0.104
28 | RRIRTRPPRLPRPRPRPHQLPRP | -0.313
29 | RRIRERPPRLPRPRPRPQMGPRP | -0.115
30 | RRIRVRPPRLPRPRPRPPWGPRP | 0.0932
31 | RRIRKRPPRLPRPRPRPISKPRP | -0.357
32 | RRIRTRPPRLPRPRPRPSWTPRP | -0.468
33 | RRIRRRPPRLPRPRPRPSFYPRP | -0.36
34 | RRIRQRPPRLPRPRPRPTVGPRP | -0.161
35 | RRIRKRPPRLPRPRPRPQRDPRP | 0.858
36 | RRIRYRPPRLPRPRPRPGCNPRP | -0.172
37 | RRIRFRPPRLPRPRPRPFAFPRP | -0.239
38 | RRIRFRPPRLPRPRPRPMPCPRP | -0.557
39 | RRIRIRPPRLPRPRPRPLAEPRP | -0.129
40 | RRIRHRPPRLPRPRPRPVLCPRP | -0.273
41 | RRIRYRPPRLPRPRPRPEPEPRP | 0.0661
42 | RRIRGRPPRLPRPRPRPCMFPRP | 0.797
43 | RRIRMRPPRLPRPRPRPFHYPRP | -0.63
44 | RRIRDRPPRLPRPRPRPWDSPRP | -0.000687
45 | RRIRQRPPRLPRPRPRPQQEPRP | 0.0811
46 | RRIRMRPPRLPRPRPRPKVAPRP | -0.0166
47 | RRIRKRPPRLPRPRPRPHYGPRP | -0.0816
48 | RRIRCRPPRLPRPRPRPCDGPRP | 0.0624
49 | RRIRCRPPRLPRPRPRPIDAPRP | -0.268
50 | RRIRCRPPRLPRPRPRPAWLPRP | 0.303

Row | Sequence | shrunken log2 fold change
51 | RRIRYRPPRLPRPRPRPEAAPRP | 0.319
52 | RRIRSRPPRLPRPRPRPLVHPRP | -0.253
53 | RRIRERPPRLPRPRPRPIGYPRP | -0.00962
54 | RRIRTRPPRLPRPRPRPRPHPRP | 0.296
55 | RRIRYRPPRLPRPRPRPTAIPRP | -0.774
56 | RRIRTRPPRLPRPRPRPTKFPRP | -0.638
57 | RRIRNRPPRLPRPRPRPKDSPRP | -0.0312
58 | RRIRERPPRLPRPRPRPDIDPRP | -0.191
59 | RRIRYRPPRLPRPRPRPIFWPRP | 0.0187
60 | RRIRARPPRLPRPRPRPHIPPRP | -0.671
61 | RRIRHRPPRLPRPRPRPCKAPRP | -0.0317
62 | RRIRCRPPRLPRPRPRPLWEPRP | 0.00378
63 | RRIRFRPPRLPRPRPRPQHVPRP | -0.315
64 | RRIRCRPPRLPRPRPRPRVAPRP | 0.293
65 | RRIRPRPPRLPRPRPRPKYGPRP | -0.491
66 | RRIRSRPPRLPRPRPRPYHSPRP | -0.181
67 | RRIRFRPPRLPRPRPRPGALPRP | 0.0277
68 | RRIRMRPPRLPRPRPRPHNKPRP | -0.305
69 | RRIRDRPPRLPRPRPRPNVFPRP | -0.268
70 | RRIRMRPPRLPRPRPRPIAEPRP | 3.46
71 | RRIRWRPPRLPRPRPRPECVPRP | 1.26
72 | RRIRMRPPRLPRPRPRPAQTPRP | 0.00383
73 | RRIRPRPPRLPRPRPRPCAGPRP | 0.122
74 | RRIRVRPPRLPRPRPRPAQLPRP | 0.0744
75 | RRIRIRPPRLPRPRPRPEGDPRP | 0.574

Reference: the supplement of paper PMC9112550, “Optimization of the antimicrobial peptide Bac7 by deep mutational scanning” (BMC Biology, 2022)
